Consider 3 molecules from patent US20260132208A1 (DOMAIN THERAPEUTICS, published 2026).

In test [1] the target is T1, human CCR8 (human, UniProt P51685 1-355). The experiment in a line: cell-based or functional assay.
The target in test [2] is T1, human CCR8. The experiment in a line: flow cytometry, hCCR8-transfected CHO-K1 cells. On the procedure: The same staining protocol was applied on human CCR8 transfected CHO cell line versus wild type CHO cell line, cutaneous T cell lymphoma HUT78 cell line and human activated T cell model.
Briefly, 1.10⁵ cells per well in a 96 well plate were incubated with a dilution of unconjugated anti-CCR8 mAb at 10 μg/mL then diluted at 1/3.33, 4 dilution points (during 30 min at 4° C.). […] Subsequently, cells are centrifuged (5 min at 400 g) and bound antibody is detected with F(ab′)2-Goat anti-Mouse IgG (H+L) Cross-Adsorbed Secondary Antibody, Alexa Fluor 488 (dilution 1/500) (Invitrogen by Thermofisher Scientific, Illkirch-Graffenstaden, France) or with F(ab′)₂-Goat anti-Human IgG Fc Secondary Antibody, PE (Invitrogen by Thermofisher Scientific, Illkirch-Graffenstaden, France) (dilution 1/1000) at 4° C. for 30 min. […] Bound detection antibody is quantified on a MacsQuant16 (Miltenyi, Gladbach, Germany) (B1 or B2 channel, 5000 events per acquisition). […] EC50 values were determined via nonlinear fit “log (agonist) vs.response—Variable slope (four parameters)” function of Graphpad prism. EC50 values were not constantly determined in the same experiments.
A general note: In flow cytometry, cells or beads pass a laser one at a time.

The next test deals with T2, pm1 (sulfated tyrosine(s) among Y15, Y16, Y17; which ones is not told (the underlining of Table 1 is lost in the text)).
T2 construct: also called sulfated CCR8 N-terminal peptide pm1
T2 sequence (peptide, as listed by the source): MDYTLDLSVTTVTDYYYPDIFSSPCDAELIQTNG
Nature of the test: ELISA on coated peptide [cont.]. The method, boiled down:
(§1)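 Optical density after 15 min TMB development is the read-out, correlated with antibody binding to the coated peptide. Plates carried peptide at 500 ng/ml in carbonate/bicarbonate buffer. Antibodies were incubated at 1 μg/mL and at a tenfold dilution for 90 min at room temperature, followed by washes.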
On the technique in general: An ELISA detects its analyte on a solid surface through an enzyme-linked reagent.

Another test addresses T3, pm6 (Y16 and Y17 sulfated; Y15 not sulfated).
T3 construct: also called sulfated CCR8 N-terminal peptide pm6
The experiment in a line: ELISA on coated peptide [cont.]. An outline of the steps:
as §1

The target of the next test is T4, pm3 (Y17 sulfated; Y15 and Y16 not sulfated).
T4 construct: also called sulfated CCR8 N-terminal peptide pm3
T4 sequence (peptide, as listed by the source): as above
The experiment in a line: ELISA on coated peptide [cont.]. The method, boiled down:
as §1

A further test has as its target T5, pm8 (Y15, Y16 and Y17 sulfated).
T5 construct: also called sulfated CCR8 N-terminal peptide pm8
Nature of the test: ELISA on coated peptide [cont.]. An outline of the steps:
as §1

The target in the next test is T6, pm4 (sulfated tyrosine(s) among Y15, Y16, Y17; which ones is not told (the underlining of Table 1 is lost in the text)).
T6 construct: also called sulfated CCR8 N-terminal peptide pm4
T6 sequence (peptide, as listed by the source): as above
Nature of the test: ELISA on coated peptide [cont.]. An outline of the steps: as §1

The target of a further test is T7, pm5 (Y15 and Y17 sulfated; Y16 not sulfated).
T7 construct: also called sulfated CCR8 N-terminal peptide pm5
T7 sequence (peptide, as listed by the source): as above
Nature of the test: ELISA on coated peptide [cont.]. The method, boiled down:
as §1

Test [3] addresses T1, human CCR8. Nature of the test: cell-based or functional assay. The source holds these as a separate data set.
The target in test [4] is T8, human CCR8 with a SNAP-tag at the N-terminus (human, UniProt P51685 1-355, SNAP-tag labelled covalently with Lumi4-Terbium).
T8 construct: also called hCCR8 SNAP-tag; CCR8 SNAP-tag
The experiment in a line: HTRF Tag-lite, inhibition of hCCL1-AF647 binding to SNAP-hCCR8 on HEK-293 cells. As for the experimental part:
The inhibition of CCL1 binding to hCCR8 was evaluated with the Tag-Lite® technology from Cisbio (Revvity). Human CCR8 is engineered with a SNAP-tag at the N-terminus of the GPCR. hCCR8 SNAP-tag is transiently transfected on HEK-293 cell line using FuGene® (Promega, Madison, WI, USA). 48 hours after transfection, cells are labeled with the substrate Lumi4-Terbium® (Cisbio, Codolet, France) which covalently reacts with the SNAP-tag, for 1 h at 37° C. Thawed or freshly labeled cells are plated in a 384 low volume white plate (GREINER Bio-One, Courtaboeuf, France) (10000 cells/well/10 μl). […] The Kd was previously obtained in a saturation binding assay on the same cells. […] The plate is next incubated at 21° C. for 2 h. Detection of HTRF signal is performed on the multiplate reader EnVision (PerkinElmer, Waltham, MA, USA). The HTRF (665/620) ratio is calculated by EnVision software, the data exported are considered as the total binding. The specific binding is calculated then by subtracting the non-specific signal from the total binding. The Ki and IC₅₀ are calculated using the “One site-Fit Ki” and “One site-FitlogIC50” from GraphPad Prism 9 (Graphpad Software, San Diego, CA, USA), respectively.
(Time-resolved FRET reads energy transfer from a long-lived donor to a nearby acceptor.)

Test [5] concerns the target T8, human CCR8 with a SNAP-tag at the …. Nature of the test: cell-based or functional assay.

T3 sequence (peptide, as listed by the source): as above
T5 sequence (peptide, as listed by the source): as above

B1: anti-CCR8 mAb 1-25 (antibody, human IgG1, kappa, V domains shown)
VH: QVQLVESGGGVVQPGRSLRLSCAASGFTFSNYRMHWVRQAPGKGLEWIAVIKVKSDNYGANYADSVKGRFTISRDNSKNTLYLQMNSLRAEDTAVYYCSSPTYPGSSGFAYWGQGTLVTVSS
VL: DIQMTQSPSSLSASVGDRVTITCRASQDISNYLNWYQQKPDGTVKLLIYYTSRLHTGVPSRFSGSGSGTDYTLTISNLQQEDIATYFCQQGNKFPPTFGGGTKVEINR
notes: Humanized mAb, human IgG1 / kappa
For B1, in the test with human CCR8 [1], the “ADCC % max lysis, HUT78 targets, NK donor 3” value is 16%; the “ADCC % max lysis, HUT78 targets, NK donor 4” value came out at 19%; the “ADCC EC50, HUT78 targets, NK donor 3” value came to 0.349 nM; the “ADCC EC50, HUT78 targets, NK donor 4” value was determined as 1.91 nM. It took 0.1 nM to reach a half-maximal effect with human CCR8 [2] (EC50).

B2: anti-CCR8 mAb 1-20 (antibody, human IgG1, kappa)
heavy: not shown
light: DIVMTQAAPSLSVTPGESASISCTSSKSLLHSNGNTYLYWFLQKPGQSPQLLIYRMSNLASGVPDRFSGSGSGTAFTLKISRVEAEDVGVYYCMQHREYPFTFGSGTKLEIKRTVAAPSVFIFPPSDEQLKSGTASVVCLLNNFYPREAKVQWKVDNALQSGNSQESVTEQDSKDSTYSLSSTLTLSKADYEKHKVYACEVTHQGLSSPVTKSFNRGEC
notes: as for B1
On to B2, for which the binding result in the test with pm1, in the test with pm6, in the test with pm3, in the test with pm8, with pm4 and with pm5 was “binds” in each case. The “IC50 (read off the curve), inhibition of hCCL1 induced Gi2 signaling, No Wash-out” value in the test with human CCR8 [3] was about 0.02 µg/mL. For the same molecule, the “IC50 (read off the curve), inhibition of hCCL1 induced Gi2 signaling, Wash-out (6 h)” value in the test with human CCR8 [3] was about 0.06 µg/mL.

B3: anti-CCR8 mAb 1-22 (antibody, human IgG1, kappa, V domains shown)
VH: EVQLLESGGGLVQPGGSLRLSCAASGFTFNAYAMNWVRQAPGKGLEWVARIRSKSNDYATYYGDSVKGRFTISRDNSKNTLYLQMNSLRAEDTAVYYCVRGREAYYRYDGGYYAMDVWGQGTTVTVSS
VL: DIVMTQSPLSLPVTPGEPASISCRSSKSLLHSNGNTYLYWFLQKPGQSPQLLIYRVSNLASGVPDRFSGSGSGTDFTLKISRVEAEDVGVYYCMQHREYPFTFGQGTKLEIKR
notes: as for B1
Regarding B3, the binding result with pm1, with pm6, with pm3, in the test with pm8, with pm4 and with pm5 was “binds” in each case. For the same molecule, the half-inhibitory concentration (IC50) (as a rule, the concentration that inhibits the measured activity by half) in [4] lay in the range of 0.1 to 1 nM. In addition, in test [5], the “% hCCR8 internalization with CCL1 300 nM, mAb 1 µg/ml (HTRF)” value stood at 139%. In test [5], the “% hCCR8 internalization with CCL1 300 nM, mAb 10 µg/ml (HTRF)” value turned out to be 52%.
